{"source": "patent US20230220070A1", "about": "(ARIALYS THERAPEUTICS, published 2023)", "key": {"[1]": {"biological_target": "T1, human NR1-His protein (extracellular domain of human NR1 with linker, HisTag and AviTag) (human, UniProt Q05586 19-392)", "T1 construct": "Expressed in Expi293F cells and purified from the supernatant; also called human NRA-His protein; human NR-His protein", "test": "SPR (Biacore T200), antibody captured by anti-human IgG on a CM5 chip, human NR1-His protein as analyte, 1:1 binding model"}, "[2]": {"biological_target": "T1, human NR1-His protein (extracellular …)", "test": "competition ELISA on plate-coated human NR1-His protein; inhibition of the binding of biotin-labelled P003-102, streptavidin-HRP chemiluminescence", "protocol": "Specifically, 15 μL of the human NR1-His protein solution (1 μg/mL in Tris Buffered Saline (herein referred to as “TBS”)) was added to the 384 well plate (Thermo Fisher Scientific, 460372) and incubated overnight at 4° C. Then, the human NRA-His protein solution was removed and washed with 0.5% Tween-20 comprising TBS, NIPPON GENE, 310-07375 (referred to as “TBS-T”). After the wash, 50 uL of Blocking One (Nacalai Tesque, Inc., 03953-95) was added and incubated at room temperature for 1 hour or more.\nAfter the wash, 15 μL is added to the HRP-labelled streptavidin (Funakoshi Co., Ltd., 21130) diluted 8,000 times using diluent, and incubated at room temperature for 30 minutes."}, "[3]": {"biological_target": "T2, human NMDAR (NR1/NR2B) on NMDAR expressing HEK cells (human, UniProt Q05586 19-938; Q13224 27-1484)", "T2 construct": "whole, on cells; Commercial HEK cell line (Charles River Laboratories, CTN6121); The antibodies are directed against the NR1 subunit; also called cell surface NMDAR; NMDAR expressed in HEK cells", "test": "flow cytometry on NMDAR-expressing HEK cells, PE-labelled anti-human IgG, GeoMFI", "protocol": "The binding activity of the produced humanized one-armed anti-human NR1 monoclonal antibodies was evaluated in a flow cytometry trial using the NMDAR expressing HEK cell.\nThe NMDAR expressing HEK cells were induced overnight and collected. […] After staining, the cells were sedimented at 1,200 rpm for 5 minutes and the supernatant was removed. After adding 2% Dialyzed FBS to the cells, the cells were centrifuged and sedimented. After the supernatant was removed, the PE labeled anti-human IgG antibody (Jackson ImmunoResearch Laboratories, 109-116-098) was diluted 100 times with 2% Dialyzed FBS and added to cells for 30 minutes at 4° C. After staining, the cells were centrifuged and sedimented as described above. After removing the supernatant, the cells were suspended in 2% Dialyzed FBS and the steps after secondary staining were repeated. The flow cytometry (FACS Verse) was measured as described in Example 3. each antibody binds with the cell surface NMDAR from GeoMFI showing the PE Fluorescence intensity value was analyzed using FlowJo (Becton Dickinson, Ver. 10.0.8)."}}, "data": [{"binder": "ABN-4, humanized one-armed anti-human NR1 antibody (antibody, human IgG1, kappa, L234A L235A) heavy: not shown light: DIQMTQSPSSLSASVGDRVTITCRPSENIYSNLAWYQQKPGKAPKLLVYAATNLADGVPSRFSGSGSGTDYTLTISSLQPEDIATYYCQHFWDSPPTFGQGTKLEIKRTVAAPSVFIFPPSDEQLKSGTASVVCLLNNFYPREAKVQWKVDNALQSGNSQESVTEQDSKDSTYSLSSTLTLSKADYEKHKVYACEVTHQGLSSPVTKSFNRGEC not shown", "values": [{"measurement": "Kd", "setting": "[1]", "value": 0.878, "unit": "nM"}, {"measurement": "IC50 (read off the curve)", "setting": "[2]", "value": "~2", "unit": "µg/mL"}]}, {"binder": "ABN-2, humanized one-armed anti-human NR1 antibody (antibody, human IgG1, kappa, L234A L235A, also called ABN_178-m3) heavy: not shown light: DLQMTQSPSSLSASVGDRVTITCKASQDVNTAVAWYQQKPGKAPKLLIYWASTRHTGVPSRFSGSGSGTDYTLTISSLQPEDFATYYCQQHYSTPFTFGQGTKVEIKRTVAAPSVFIFPPSDEQLKSGTASVVCLLNNFYPREAKVQWKVDNALQSGNSQESVTEQDSKDSTYSLSSTLTLSKADYEKHKVYACEVTHQGLSSPVTKSFNRGEC not shown", "values": [{"measurement": "EC50 (read off the curve)", "setting": "[3]", "value": "~0.05", "unit": "µg/mL"}, {"measurement": "IC50 (read off the curve)", "setting": "[2]", "value": "~0.3", "unit": "µg/mL"}]}, {"binder": "ABN-5, one-armed anti-human NR1 antibody derived from P003-102 (antibody, human IgG1, lambda, L234A L235A, Monovalent one-armed antibody made of one heavy chain (LALA; T366S, L368A, Y407V), one light chain and one Fc polypeptide) heavy: not shown light: NFMLTQPHSVSESPGKTVTISCTRSSGSIASNYVQWYQQRPGSAPTTVIYEDNQRPSGVPDRFSGSIDSSSNSASLTISGLKTEDEADYYCQSYDSSTVVFGGGTKLTVLGQPKANPTVTLFPPSSEELQANKATLVCLISDFYPGAVTVAWKADGSPVKAGVETTKPSKQSNNKYAASSYLSLTPEQWKSHRSYSCQVTHEGSTVEKTVAPTECS not shown", "values": [{"measurement": "EC50 (read off the curve)", "setting": "[3]", "value": "~0.8", "unit": "µg/mL"}]}]}
